According to publication PMC4766841:

Biological target: CIB1N-DBD (CIB1N (1-170) fused to the Gal4 DNA binding domain) (Arabidopsis thaliana) (UniProt Q8GY61)
Assay: two-hybrid

UniProt Q8GY61, sequence (Q8GY61 1-170): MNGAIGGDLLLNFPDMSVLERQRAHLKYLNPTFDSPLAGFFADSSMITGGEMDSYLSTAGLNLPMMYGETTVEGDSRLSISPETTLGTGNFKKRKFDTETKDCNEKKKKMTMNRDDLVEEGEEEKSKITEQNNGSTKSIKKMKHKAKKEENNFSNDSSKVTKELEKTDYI

- β-Gal Light: 47.1
Substance: CRY2PHR-AD (CRY2PHR fused to the Gal4 activation domain) (from UniProt Q96524 1-498) (domain or fragment)
